Results published in US20050059132A1.

Legend:
[1] = molecular target: APC mutant QGNSEDY (ALL) (human) (UniProt P04070); experiment: cell-based or functional assay
[2] = molecular target: human wild-type activated protein C (human) (UniProt P04070); experiment: cell-based or functional assay
[3] = molecular target: human plasma factor Va (normal, wild-type), P12259
[4] = molecular target: R506Q FVa (FVa Leiden, activated FV:Q506), P12259
R506Q FVa (FVa Leiden, activated FV:Q506), P12259, sequence (P12259 29-2224 R534Q): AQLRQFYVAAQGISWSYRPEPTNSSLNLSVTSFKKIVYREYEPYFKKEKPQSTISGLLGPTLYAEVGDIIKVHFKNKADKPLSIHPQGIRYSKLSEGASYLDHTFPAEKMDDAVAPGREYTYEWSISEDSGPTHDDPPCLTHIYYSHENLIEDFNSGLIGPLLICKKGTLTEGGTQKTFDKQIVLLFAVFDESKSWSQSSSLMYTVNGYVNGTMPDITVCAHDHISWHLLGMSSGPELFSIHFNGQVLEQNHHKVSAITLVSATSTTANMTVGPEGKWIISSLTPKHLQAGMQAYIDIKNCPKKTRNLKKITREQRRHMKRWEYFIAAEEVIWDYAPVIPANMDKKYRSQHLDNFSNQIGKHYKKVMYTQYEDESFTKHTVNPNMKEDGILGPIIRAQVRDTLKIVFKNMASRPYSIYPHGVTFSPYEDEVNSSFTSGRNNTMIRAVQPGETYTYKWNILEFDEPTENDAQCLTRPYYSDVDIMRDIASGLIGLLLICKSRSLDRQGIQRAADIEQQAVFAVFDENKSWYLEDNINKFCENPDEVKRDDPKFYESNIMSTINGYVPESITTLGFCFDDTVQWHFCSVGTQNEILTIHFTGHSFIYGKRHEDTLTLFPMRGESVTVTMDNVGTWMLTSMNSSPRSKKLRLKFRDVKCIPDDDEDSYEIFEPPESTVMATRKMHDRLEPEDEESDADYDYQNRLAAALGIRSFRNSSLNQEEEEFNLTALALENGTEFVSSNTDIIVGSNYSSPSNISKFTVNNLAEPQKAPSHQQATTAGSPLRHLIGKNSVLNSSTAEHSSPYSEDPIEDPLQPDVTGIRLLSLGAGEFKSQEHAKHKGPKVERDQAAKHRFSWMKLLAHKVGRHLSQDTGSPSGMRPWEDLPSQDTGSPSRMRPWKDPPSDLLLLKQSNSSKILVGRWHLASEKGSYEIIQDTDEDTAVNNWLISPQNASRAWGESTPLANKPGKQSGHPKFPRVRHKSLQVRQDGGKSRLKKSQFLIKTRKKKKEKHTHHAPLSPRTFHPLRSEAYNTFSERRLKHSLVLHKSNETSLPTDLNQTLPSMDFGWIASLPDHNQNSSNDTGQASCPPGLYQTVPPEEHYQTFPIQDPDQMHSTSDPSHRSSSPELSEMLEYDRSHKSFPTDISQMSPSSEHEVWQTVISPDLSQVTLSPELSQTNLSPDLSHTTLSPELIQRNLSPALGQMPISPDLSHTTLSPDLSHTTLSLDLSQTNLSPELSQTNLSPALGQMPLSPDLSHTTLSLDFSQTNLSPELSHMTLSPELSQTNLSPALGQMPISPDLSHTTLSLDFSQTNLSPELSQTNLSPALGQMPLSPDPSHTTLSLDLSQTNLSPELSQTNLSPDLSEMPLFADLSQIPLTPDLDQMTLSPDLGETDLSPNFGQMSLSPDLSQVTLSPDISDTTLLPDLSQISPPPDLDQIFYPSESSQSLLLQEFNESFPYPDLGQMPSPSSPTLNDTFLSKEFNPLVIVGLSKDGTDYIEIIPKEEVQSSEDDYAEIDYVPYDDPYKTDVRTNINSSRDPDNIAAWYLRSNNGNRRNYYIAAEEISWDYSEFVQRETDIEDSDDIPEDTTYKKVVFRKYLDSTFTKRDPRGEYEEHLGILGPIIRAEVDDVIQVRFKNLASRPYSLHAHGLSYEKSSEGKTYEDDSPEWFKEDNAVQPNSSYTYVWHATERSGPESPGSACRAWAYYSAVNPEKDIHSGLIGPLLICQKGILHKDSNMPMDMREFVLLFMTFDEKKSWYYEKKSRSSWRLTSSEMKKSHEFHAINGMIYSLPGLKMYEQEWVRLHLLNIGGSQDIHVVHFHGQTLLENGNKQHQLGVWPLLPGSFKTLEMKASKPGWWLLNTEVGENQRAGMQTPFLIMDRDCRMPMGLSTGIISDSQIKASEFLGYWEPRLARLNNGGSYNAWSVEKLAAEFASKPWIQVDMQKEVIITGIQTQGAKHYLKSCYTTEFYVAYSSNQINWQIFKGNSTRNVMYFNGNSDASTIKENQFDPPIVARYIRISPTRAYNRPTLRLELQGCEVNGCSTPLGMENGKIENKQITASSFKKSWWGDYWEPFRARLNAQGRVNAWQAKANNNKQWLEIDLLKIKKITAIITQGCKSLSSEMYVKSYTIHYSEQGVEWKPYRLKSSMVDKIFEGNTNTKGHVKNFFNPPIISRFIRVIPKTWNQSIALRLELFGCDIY

human plasma factor Va (normal, wild-type), P12259, sequence (P12259 29-2224): as the sequence (P12259 29-2224 R534Q) above, with Q506R counted along it

Row | Molecule | APTT clotting time in protein S deficient plasma with 20 nM APC, in absence of protein S [1] | APTT clotting time in protein S deficient plasma with 20 nM APC, with protein S added [1] | APTT clotting time in protein S deficient plasma with 20 nM APC, at the highest protein S concentration [2] | APTT clotting time in protein S deficient plasma with 20 nM APC, in absence of protein S [2] | loss of FVa activity over time (FXa-mediated prothrombin activation assay) on incubation of 0.76 nM FVa with 0.39 nM APC [3] | remaining FVa activity over time on incubation with 0.4 nM APC [4]
1 | human protein S (from UniProt P07225 42-676) | 160 s | 350 s | 150 s | 100 s |  | 
2 | human wild-type activated protein C (protein) chain 1: ANSFLEELRHSSLERECIEEICDFEEAKEIFQNVDDTLAFWSKHVDGDQCLVLPLEHPCASLCCGHGTCIDGIGSFSCDCRSGWEGRFCQREVSFLNCSLDNGGCTHYCLEEVGWRRCSCAPGYKLGDDLLQCHPAVKFPCGRPWKRMEKKRSHL chain 2: LIDGKMTRRGDSPWQVVLLDSKKKLACGAVLIHPSWVLTAAHCMDESKKLLVRLGEYDLRRWEKWELDLDIKEVFVHPNYSKSTTDNDIALLHLAQPATLSQTIVPICLPDSGLAERELNQAGQETLVTGWGYHSSREKEAKRNRTFVLNFIKIPVVPHNECSEVMSNMVSENMLCAGILGDRQDACEGDSGGPMVASFHGTWFLVGLVSWGEGCGLLHNYGVYTKVSRYLDWIHGHIRDKEAPQKSWAP |  |  |  |  | the initial rapid loss of FVa activity that is observed during the first 5 minutes of incubation | a slow decrease in FVa activity
